Results on one substance are retold here after patent publication US20030092613A1, “Alpha7 nicotinic receptor peptides as ligands for beta amyloid peptides” (priority 2000, published 2003).

In this assay the target is β-amyloid1-42 (UniProt P05067). Nature of the assay: cell-based or functional assay.

cyclic peptide (Ac)ECCK-amide came in with an ACh rel % Inh @ 100 µM of 87%.
